Assay results reported in patent publication US20200331998A1 (ALLOGENE THERAPEUTICS, published 2020).

Experiments:
hCD19-HIS-AVI = target: T1, hCD19-HIS-AVI (human, UniProt P15391 20-291, limits assumed); test: SPR (Biacore, 25° C.) sandwich assay with buffer/hCD19 injections
T1 construct: not shown: His and Avi tags
T1 sequence (looked up): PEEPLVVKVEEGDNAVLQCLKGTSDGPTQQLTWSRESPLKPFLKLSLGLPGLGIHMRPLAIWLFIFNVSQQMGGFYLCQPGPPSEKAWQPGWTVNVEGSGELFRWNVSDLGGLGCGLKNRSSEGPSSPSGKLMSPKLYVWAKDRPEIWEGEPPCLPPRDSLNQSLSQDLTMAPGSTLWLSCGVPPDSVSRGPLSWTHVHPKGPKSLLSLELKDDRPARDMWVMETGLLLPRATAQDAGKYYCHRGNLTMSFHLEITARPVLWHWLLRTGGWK
Experimental: (§1) Anti-m4G7 purified sub-clone antibodies were tested for binding to m4G7-hFab. Blocking effect was determined using a sandwich assay and binding confirmation to […] was determined using a Biacore assay at 25° C. […] Sensor chip CAP (CAPture chip) #505 was used as a surface. After rehydrating the sensor chip CAP with water at 42° C. for 1 hour, the chip was dried with compressed air. The surface of the chip was conditioned using triplicate 1 min injections of regeneration solution at 10 μl/min. The regeneration solution included 3 parts of Regeneration Stock 1 (8 M guanidine-HCl) with 1 part Regeneration Stock 2 (1 M NaOH). Capture of Biotin CAPture reagent for 5 min at 2 μl/min was followed by capture of biotinylated Fusion E2153 anti-m4G7 purified sub-clones antibodies and control antibodies at 10 μg/ml for 1 min at 10 μl/min.
The blocking effect of m4G7-hFab binding to hCD19 by the purified anti-Ids sub-clones from Fusion E2153 was determined by the sandwich assay at 25° C. Sample 1 was injected for 2 min at 30 μL/min followed by 10 sec in buffer then Sample 2 was injected for 2 min at 30 μL/min followed by 3 min dissociation: […]

m4G7 hFab 8×His [1] = target: T2, m4G7 hFab 8×His (human); test: Biacore SPR at 25 °C, biotinylated antibody captured on CAP chip, m4G7-hFab injected, 1:1 Binding fit printed under the sensorgram; the text (Table 3) calls this clone very high affinity, outside instrument limits
T2 construct: Immunogen and Biacore analyte; also called 4G7-human Fab-8×His fusion protein (E2153); m4G7-Fab; not shown: It lies between the VH and the 8xHis tag and is left out
Experimental: as §1
(§2) For the kinetics assay, the buffer and m4G7-hFab at 1 nM, 10 nM, and 100 nM were injected for 2 min at 30 μL/min followed by 5 min dissociation.

m4G7 hFab 8×His [2] = target: T2, m4G7 hFab 8×His; test: SPR (Biacore, 25° C.), biotinylated antibody captured on CAP chip, m4G7-hFab as analyte
Experimental: as §1, §2

T2 sequence (VH, as listed by the source limits assumed, chain 1 of 2): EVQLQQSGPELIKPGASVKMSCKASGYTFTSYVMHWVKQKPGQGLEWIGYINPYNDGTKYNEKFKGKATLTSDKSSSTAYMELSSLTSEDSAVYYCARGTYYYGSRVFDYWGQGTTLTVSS
T2 sequence (VL, as listed by the source limits assumed, chain 2 of 2): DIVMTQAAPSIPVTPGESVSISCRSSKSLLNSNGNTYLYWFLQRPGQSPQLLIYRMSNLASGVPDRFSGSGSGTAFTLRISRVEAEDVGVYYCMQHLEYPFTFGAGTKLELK

Row | Binder | binding result (hCD19-HIS-AVI) | Kd (m4G7 hFab 8×His [1]) [nM] | koff (m4G7 hFab 8×His [1]) [s⁻¹] | kon (m4G7 hFab 8×His [1]) [M⁻¹ s⁻¹] | Kd (m4G7 hFab 8×His [2]) [nM] | koff (m4G7 hFab 8×His [2]) [s⁻¹] | kon (m4G7 hFab 8×His [2]) [M⁻¹ s⁻¹] | t1/2 (m4G7 hFab 8×His [2]) [h]
1 | E2153.4D7.E11 (antibody, V domains shown, Mouse hybridoma antibody; Biotinylated for the Biacore assays; PE-labelled in flow cytometry; also called Clone E11) VH: QVQLQQSGAELVRPGTSVKVSCKASGYAFTNYLIEWVKQRPGQGLEWIGVITPGSGGSNYNEKFKGKATLTADKSSSTAYMQLSSLTSDDSAVYFCARWLDYDWFAYWGQGTLVTVSA VL: DIKMTQSPSSMYASLGERVTITCKASQDINSYLSWFQQKPGKSPKTLIYRANRLVDGVPSRFSGSGSGQDYSLTISSLEYEDMGIYYCRQCDEFPSTFGGGTKLEIK | no binding (tested: 300 nM) | 0.00936 | 3.65e-05 | 3.9e+06 |  |  |  | 
2 | E2153.1D9.B4 (antibody, V domains shown, Mouse hybridoma antibody; Biotinylated for the Biacore assays; also called Clone B4) VH: QVQLQQSGAELVRPGTSVKVSCKASGYAFTNYLIEWIKQRPGQGLEWIGVINPGSGGINYNEKFKGKATLTSDKSSSTAYMQLSSLTSDDSAVYFCARWLDYDWFAYWGQGTLVTVSA VL: DIKMTQFPSSMYASVGERVTITCKASQDINSYLSWFQQKPGKSPKTLIYRANRLVDGVPSRFSGSGSGQDYSLTISSLEYEDMGIYYCLQCDEFPFTFGGGTKLEIK | no binding (tested: 300 nM) | 0.00489 | 1.58e-05 | 3.22e+06 |  |  |  | 
3 | E2153.1C4.E2 (antibody, V domains shown, Mouse hybridoma antibody; Biotinylated for the Biacore assays; also called Clone E2) VH: QVQLQQSGAELVKPGASVKVSCKAFGYTFTTYPIEWMRQNHGKSLEWIGNFHPYNDDTRYNEKFKDKAKLTVEKSSSTVYLELSRLTYDDSAVYYCTRGNDYDLYGMDYWGQGTSVTVSS VL: DIKMTQFPSSMYASLGERVTITCKASQDINTYLTWFQQKPGKSPKTLIYRANRLVDGVPSRFSGSGSGQDYSLTISSLEYEDMGIYYCLQCDDFPLTFGAGTKLELK | no binding (tested: 300 nM) |  |  |  | 0.0167 | 0.000128 | 7.65e+06 | 1.5
4 | E2153.2H8.A8 (antibody, V domains shown, Mouse IgG1/kappa hybridoma antibody; Biotinylated for the Biacore assays; also called Clone A8; anti-UCART19 idiotype antibody A8) VH: QVQLQQSGAELVKPGASVKVSCKAFGYTFTTYPIEWMRQNHGKSLEWIGNFHPYNDDTRYNEKFKDKAKLTVEKSSSTVYLELSRLTYDDSAVYYCTRGNDYDLYGMDYWGQGTSVTVSS VL: DIKMTQSPSSMYASLGERVTITCKASQDINTYLTWFQQKPGKSPKTLIYRANRLVDGVPSRFSGSGSGQDYSLTISSLEYEDMGIYYCLQCDDFPLTFGAGTKLELKR | no binding (tested: 300 nM) |  |  |  | 0.0144 | 0.000106 | 7.35e+06 | 1.82
